Key:
[1] = target: IL-18 WT (native sequence, SEQ ID NO: 1) (human) (UniProt Q14116)
[2] = target: C161 (K8R, V11I, C38A, C76A, Q103E, C127A) (human) (UniProt Q14116); experiment: cell-based or functional assay
[3] = target: C155 (V11I, C38A, D40A, K53A, C76A, C127A) (human) (UniProt Q14116); experiment: cell-based or functional assay
[4] = target: IL-18 polypeptide SEQ ID NO: 35 (Y01G, F02A, E06K, M51G, K53A, D54A, S55A, T63A) (human) (UniProt Q14116); experiment: cell-based or functional assay
[5] = target: IL-18 polypeptide SEQ ID NO: 62 (E6K, C38A, K53A, C127A) (human) (UniProt Q14116); experiment: cell-based or functional assay
[6] = target: C162 (K8E, V11I, C38A, C76A, Q103R, C127A) (human) (UniProt Q14116); experiment: cell-based or functional assay
[7] = target: IL-18 polypeptide SEQ ID NO: 5 (E6K, V11I, C38A, K53A, T63A, C68A, C76A, M86C, C127A) (human) (UniProt Q14116); experiment: cell-based or functional assay
[8] = target: IL-18 polypeptide SEQ ID NO: 52 (E06K, T63A) (human) (UniProt Q14116); experiment: cell-based or functional assay
[9] = target: IL-18 polypeptide SEQ ID NO: 59 (E6K, C38A, K53A) (human) (UniProt Q14116); experiment: cell-based or functional assay
[10] = target: IL-18 polypeptide SEQ ID NO: 34 (E06K, K53A, S55A) (human) (UniProt Q14116); experiment: cell-based or functional assay
[11] = target: C166 (V11I, C38A, S55T, C76A, C127A) (human) (UniProt Q14116); experiment: cell-based or functional assay
[12] = target: IL-18 polypeptide SEQ ID NO: 55 (K53A, T63A, C38S, C68S, C76S, C127S, K70C) (human) (UniProt Q14116); experiment: cell-based or functional assay
[13] = target: IL-18 polypeptide SEQ ID NO: 53 (K53A, T63A) (human) (UniProt Q14116); experiment: cell-based or functional assay
[14] = target: C153 (V11I, D37A, C38A, K53A, C76A, C127A) (human) (UniProt Q14116); experiment: cell-based or functional assay
[15] = target: IL-18 polypeptide SEQ ID NO: 57 (E6K, C38S, K53A) (human) (UniProt Q14116); experiment: cell-based or functional assay
[16] = target: C147 (V11I, C38A, K53A, D54A, C76A, C127A) (human) (UniProt Q14116); experiment: cell-based or functional assay
[17] = target: IL-18 polypeptide SEQ ID NO: 9 (E6K, C38A, K53A, C68A, D98C) (human) (UniProt Q14116); experiment: cell-based or functional assay
[18] = target: C167 (V11I, C38A, C76A, S105I, C127A) (human) (UniProt Q14116); experiment: cell-based or functional assay
[19] = target: C168 (V11I, C38A, C76A, S105K, C127A) (human) (UniProt Q14116); experiment: cell-based or functional assay
[20] = target: C152 (V11I, S36A, C38A, K53A, C76A, C127A) (human) (UniProt Q14116); experiment: cell-based or functional assay
[21] = target: IL-18 polypeptide SEQ ID NO: 37 (S55A) (human) (UniProt Q14116); experiment: cell-based or functional assay
[22] = target: IL-18 polypeptide SEQ ID NO: 46 (E06K, K53A, S55A, M51G) (human) (UniProt Q14116); experiment: cell-based or functional assay
[23] = target: IL-18 polypeptide SEQ ID NO: 51 (T63A) (human) (UniProt Q14116); experiment: cell-based or functional assay
[24] = target: C150 (V11I, T34A, C38A, K53A, C76A, C127A) (human) (UniProt Q14116); experiment: cell-based or functional assay
[25] = target: C144 (V11I, C38A, K53A, T63A, C76A, C127A) (human) (UniProt Q14116); experiment: cell-based or functional assay
[26] = target: IL-18 polypeptide SEQ ID NO: 39 (E06K, K53A) (human) (UniProt Q14116); experiment: cell-based or functional assay
[27] = target: C148 (F2A, V11I, C38A, K53A, C76A, C127A) (human) (UniProt Q14116); experiment: cell-based or functional assay
[28] = target: IL-18 polypeptide SEQ ID NO: 47 (C38S, C68S, C76S, C127S) (human) (UniProt Q14116); experiment: cell-based or functional assay
[29] = target: IL-18 polypeptide SEQ ID NO: 42 (E06K, K53A, S55A, T63A) (human) (UniProt Q14116); experiment: cell-based or functional assay
[30] = target: IL-18 polypeptide SEQ ID NO: 36 (K53A) (human) (UniProt Q14116); experiment: cell-based or functional assay
[31] = target: C165 (V11I, C38A, S55R, C76A, C127A) (human) (UniProt Q14116); experiment: cell-based or functional assay
[32] = target: C163 (V11I, C38A, C76A, Q103K, C127A) (human) (UniProt Q14116); experiment: cell-based or functional assay
[33] = target: C145 (V11I, C38A, K53A, S55A, C76A, C127A) (human) (UniProt Q14116); experiment: cell-based or functional assay
[34] = target: IL-18 polypeptide SEQ ID NO: 54 (E06K, K53A, C38S, C68S, C76S, C127S, K70C) (human) (UniProt Q14116); experiment: cell-based or functional assay
[35] = target: C154 (V11I, E31A, D37A, C38A, K53A, C76A, C127A) (human) (UniProt Q14116); experiment: cell-based or functional assay
Chain of C154 (V11I, E31A, D37A, C38A, K53A, C76A, C127A) (human) (Q14116 37-193 V47I/E67A/D73A/C74A/K89A/C112A/C163A): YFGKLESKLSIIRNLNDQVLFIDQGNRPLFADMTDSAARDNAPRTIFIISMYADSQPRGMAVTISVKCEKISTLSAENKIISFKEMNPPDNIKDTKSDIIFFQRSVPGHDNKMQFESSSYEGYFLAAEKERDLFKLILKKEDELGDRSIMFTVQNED

Chain of C163 (V11I, C38A, C76A, Q103K, C127A) (human) (Q14116 37-193 V47I/C74A/C112A/Q139K/C163A): as the sequence (Q14116 37-193 V47I/E67A/D73A/C74A/K89A/C112A/C163A) above, with A31E, A37D, A53K, Q103K counted along it
Chain of C150 (V11I, T34A, C38A, K53A, C76A, C127A) (human) (Q14116 37-193 V47I/T70A/C74A/K89A/C112A/C163A): as the sequence (Q14116 37-193 V47I/E67A/D73A/C74A/K89A/C112A/C163A) above, with A31E, T34A, A37D counted along it
Chain of C144 (V11I, C38A, K53A, T63A, C76A, C127A) (human) (Q14116 37-193 V47I/C74A/K89A/T99A/C112A/C163A): as the sequence (Q14116 37-193 V47I/E67A/D73A/C74A/K89A/C112A/C163A) above, with A31E, A37D, T63A counted along it
Chain of C147 (V11I, C38A, K53A, D54A, C76A, C127A) (human) (Q14116 37-193 V47I/C74A/K89A/D90A/C112A/C163A): as the sequence (Q14116 37-193 V47I/E67A/D73A/C74A/K89A/C112A/C163A) above, with A31E, A37D, D54A counted along it
Chain of C152 (V11I, S36A, C38A, K53A, C76A, C127A) (human) (Q14116 37-193 V47I/S72A/C74A/K89A/C112A/C163A): as the sequence (Q14116 37-193 V47I/E67A/D73A/C74A/K89A/C112A/C163A) above, with A31E, S36A, A37D counted along it
Chain of C155 (V11I, C38A, D40A, K53A, C76A, C127A) (human) (Q14116 37-193 V47I/C74A/D76A/K89A/C112A/C163A): as the sequence (Q14116 37-193 V47I/E67A/D73A/C74A/K89A/C112A/C163A) above, with A31E, A37D, D40A counted along it
Chain of IL-18 polypeptide SEQ ID NO: 36 (K53A) (human) (Q14116 37-193 K89A): as the sequence (Q14116 37-193 V47I/E67A/D73A/C74A/K89A/C112A/C163A) above, with I11V, A31E, A37D, A38C, A76C, A127C counted along it
Chain of IL-18 polypeptide SEQ ID NO: 59 (E6K, C38A, K53A) (human) (Q14116 other isoform, or with tags, fused parts or gaps C38A K53A C38A K53A): as the sequence (Q14116 37-193 V47I/E67A/D73A/C74A/K89A/C112A/C163A) above, with E6K, I11V, A31E, A37D, A76C, A127C counted along it
Chain of IL-18 polypeptide SEQ ID NO: 34 (E06K, K53A, S55A) (human) (Q14116 37-193 E42K/K89A/S91A): as the sequence (Q14116 37-193 V47I/E67A/D73A/C74A/K89A/C112A/C163A) above, with E6K, I11V, A31E, A37D, A38C, S55A, A76C, A127C counted along it
Chain of IL-18 polypeptide SEQ ID NO: 46 (E06K, K53A, S55A, M51G) (human) (Q14116 37-193 E42K/M87G/K89A/S91A): as the sequence (Q14116 37-193 V47I/E67A/D73A/C74A/K89A/C112A/C163A) above, with E6K, I11V, A31E, A37D, A38C, M51G, S55A, A76C, A127C counted along it
Chain of C153 (V11I, D37A, C38A, K53A, C76A, C127A) (human) (Q14116 37-193 V47I/D73A/C74A/K89A/C112A/C163A): as the sequence (Q14116 37-193 V47I/E67A/D73A/C74A/K89A/C112A/C163A) above, with A31E counted along it
Chain of IL-18 polypeptide SEQ ID NO: 39 (E06K, K53A) (human) (Q14116 37-193 E42K/K89A): as the sequence (Q14116 37-193 V47I/E67A/D73A/C74A/K89A/C112A/C163A) above, with E6K, I11V, A31E, A37D, A38C, A76C, A127C counted along it
Chain of C148 (F2A, V11I, C38A, K53A, C76A, C127A) (human) (Q14116 other isoform, or with tags, fused parts or gaps V11I C38A K53A C76A C127A V11I C38A K53A C76A C127A): as the sequence (Q14116 37-193 V47I/E67A/D73A/C74A/K89A/C112A/C163A) above, with F2A, A31E, A37D counted along it
Chain of IL-18 polypeptide SEQ ID NO: 55 (K53A, T63A, C38S, C68S, C76S, C127S, K70C) (human) (Q14116 37-193 C74S/K89A/T99A/C104S/K106C/C112S/C163S): as the sequence (Q14116 37-193 V47I/E67A/D73A/C74A/K89A/C112A/C163A) above, with I11V, A31E, A37D, A38S, T63A, C68S, K70C, A76S, A127S counted along it
Chain of C165 (V11I, C38A, S55R, C76A, C127A) (human) (Q14116 37-193 V47I/C74A/S91R/C112A/C163A): as the sequence (Q14116 37-193 V47I/E67A/D73A/C74A/K89A/C112A/C163A) above, with A31E, A37D, A53K, S55R counted along it
Chain of IL-18 polypeptide SEQ ID NO: 52 (E06K, T63A) (human) (Q14116 37-193 E42K/T99A): as the sequence (Q14116 37-193 V47I/E67A/D73A/C74A/K89A/C112A/C163A) above, with E6K, I11V, A31E, A37D, A38C, A53K, T63A, A76C, A127C counted along it
Chain of C168 (V11I, C38A, C76A, S105K, C127A) (human) (Q14116 37-193 V47I/C74A/C112A/S141K/C163A): as the sequence (Q14116 37-193 V47I/E67A/D73A/C74A/K89A/C112A/C163A) above, with A31E, A37D, A53K, S105K counted along it
Chain of C145 (V11I, C38A, K53A, S55A, C76A, C127A) (human) (Q14116 37-193 V47I/C74A/K89A/S91A/C112A/C163A): as the sequence (Q14116 37-193 V47I/E67A/D73A/C74A/K89A/C112A/C163A) above, with A31E, A37D, S55A counted along it
Chain of C162 (K8E, V11I, C38A, C76A, Q103R, C127A) (human) (Q14116 other isoform, or with tags, fused parts or gaps V11I C38A C76A Q103R C127A V11I C38A C76A Q103R C127A): as the sequence (Q14116 37-193 V47I/E67A/D73A/C74A/K89A/C112A/C163A) above, with K8E, A31E, A37D, A53K, Q103R counted along it
Chain of IL-18 polypeptide SEQ ID NO: 5 (E6K, V11I, C38A, K53A, T63A, C68A, C76A, M86C, C127A) (human) (Q14116 other isoform, or with tags, fused parts or gaps with the stated changes): as the sequence (Q14116 37-193 V47I/E67A/D73A/C74A/K89A/C112A/C163A) above, with E6K, A31E, A37D, T63A, C68A, M86C counted along it
Chain of IL-18 polypeptide SEQ ID NO: 54 (E06K, K53A, C38S, C68S, C76S, C127S, K70C) (human) (Q14116 37-193 E42K/C74S/K89A/C104S/K106C/C112S/C163S): as the sequence (Q14116 37-193 V47I/E67A/D73A/C74A/K89A/C112A/C163A) above, with E6K, I11V, A31E, A37D, A38S, C68S, K70C, A76S, A127S counted along it
Chain of IL-18 WT (native sequence, SEQ ID NO: 1) (human) (Q14116 37-193): as the sequence (Q14116 37-193 V47I/E67A/D73A/C74A/K89A/C112A/C163A) above, with I11V, A31E, A37D, A38C, A53K, A76C, A127C counted along it
Chain of IL-18 polypeptide SEQ ID NO: 37 (S55A) (human) (Q14116 37-193 S91A): as the sequence (Q14116 37-193 V47I/E67A/D73A/C74A/K89A/C112A/C163A) above, with I11V, A31E, A37D, A38C, A53K, S55A, A76C, A127C counted along it
Chain of IL-18 polypeptide SEQ ID NO: 62 (E6K, C38A, K53A, C127A) (human) (Q14116 other isoform, or with tags, fused parts or gaps C38A K53A C127A C38A K53A C127A): as the sequence (Q14116 37-193 V47I/E67A/D73A/C74A/K89A/C112A/C163A) above, with E6K, I11V, A31E, A37D, A76C counted along it
Chain of IL-18 polypeptide SEQ ID NO: 42 (E06K, K53A, S55A, T63A) (human) (Q14116 37-193 E42K/K89A/S91A/T99A): as the sequence (Q14116 37-193 V47I/E67A/D73A/C74A/K89A/C112A/C163A) above, with E6K, I11V, A31E, A37D, A38C, S55A, T63A, A76C, A127C counted along it
Chain of IL-18 polypeptide SEQ ID NO: 35 (Y01G, F02A, E06K, M51G, K53A, D54A, S55A, T63A) (human) (Q14116 37-193 Y37G/F38A/E42K/M87G/K89A/D90A/S91A/T99A): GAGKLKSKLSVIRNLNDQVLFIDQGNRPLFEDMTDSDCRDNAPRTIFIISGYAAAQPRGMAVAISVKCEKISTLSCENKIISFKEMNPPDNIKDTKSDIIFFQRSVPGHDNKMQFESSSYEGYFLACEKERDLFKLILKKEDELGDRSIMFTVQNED
Chain of C166 (V11I, C38A, S55T, C76A, C127A) (human) (Q14116 37-193 V47I/C74A/S91T/C112A/C163A): as the sequence (Q14116 37-193 V47I/E67A/D73A/C74A/K89A/C112A/C163A) above, with A31E, A37D, A53K, S55T counted along it

- IC50 (read off the curve), inhibition of IFNg production by NK-92 cells [1]: 1 to 2 nM
- IC50 (nM), IL-18BPa inhibition of IFNγ induction, NK-92 cells [2]: 7.29 nM
- IC50 (nM), IL-18BPa inhibition of IFNγ induction, NK-92 cells [3]: 0.681 nM
- IC50 (nM), IL-18BPa inhibition of IFNγ induction, NK-92 cells [4]: > 55 nM
- IC50 (nM), IL-18BPa inhibition of IFNγ induction, NK-92 cells [5]: 780 nM
- IC50 (nM), IL-18BPa inhibition of IFNγ induction, NK-92 cells [6]: 0.823 nM
- IC50 (nM), IL-18BPa inhibition of IFNγ induction, NK-92 cells [7]: 62.4 nM
- IC50 (nM), IL-18BPa inhibition of IFNγ induction, NK-92 cells [8]: 47.1 nM
- IC50 (nM), IL-18BPa inhibition of IFNγ induction, NK-92 cells [9]: 146 nM
- IC50 (nM), IL-18BPa inhibition of IFNγ induction, NK-92 cells [10]: 229 nM
- IC50 (nM), IL-18BPa inhibition of IFNγ induction, NK-92 cells [11]: 0.809 nM
- IC50 (nM), IL-18BPa inhibition of IFNγ induction, NK-92 cells [12]: > 1000 nM
- IC50 (nM), IL-18BPa inhibition of IFNγ induction, NK-92 cells [13]: 18.2 nM
- IC50 (nM), IL-18BPa inhibition of IFNγ induction, NK-92 cells [14]: 3.71 nM
- IC50 (nM), IL-18BPa inhibition of IFNγ induction, NK-92 cells [15]: 1.62 nM
- IC50 (nM), IL-18BPa inhibition of IFNγ induction, NK-92 cells [16]: 5.05 nM
- IC50 (nM), IL-18BPa inhibition of IFNγ induction, NK-92 cells [17]: 961 nM
- IC50 (nM), IL-18BPa inhibition of IFNγ induction, NK-92 cells [18]: 0.176 nM
- IC50 (nM), IL-18BPa inhibition of IFNγ induction, NK-92 cells [19]: 5.85 nM
- IC50 (nM), IL-18BPa inhibition of IFNγ induction, NK-92 cells [20]: 2.22 nM
- IC50 (nM), IL-18BPa inhibition of IFNγ induction, NK-92 cells [21]: 4.46 nM
- IC50 (nM), IL-18BPa inhibition of IFNγ induction, NK-92 cells [22]: 0.189 nM
- IC50 (nM), IL-18BPa inhibition of IFNγ induction, NK-92 cells [23]: 0.239 nM
- IC50 (nM), IL-18BPa inhibition of IFNγ induction, NK-92 cells [24]: 3.62 nM
- IC50 (nM), IL-18BPa inhibition of IFNγ induction, NK-92 cells [25]: 10.2 nM
- IC50 (nM), IL-18BPa inhibition of IFNγ induction, NK-92 cells [26]: > 703 nM
- IC50 (nM), IL-18BPa inhibition of IFNγ induction, NK-92 cells [27]: 1.17 nM
- IC50 (nM), IL-18BPa inhibition of IFNγ induction, NK-92 cells [28]: 0.444 nM
- IC50 (nM), IL-18BPa inhibition of IFNγ induction, NK-92 cells [29]: 1060 nM
- IC50 (nM), IL-18BPa inhibition of IFNγ induction, NK-92 cells [30]: 27.3 nM
- IC50 (nM), IL-18BPa inhibition of IFNγ induction, NK-92 cells [31]: 0.44 nM
- IC50 (nM), IL-18BPa inhibition of IFNγ induction, NK-92 cells [32]: 0.456 nM
- IC50 (nM), IL-18BPa inhibition of IFNγ induction, NK-92 cells [33]: 733 nM
- IC50 (nM), IL-18BPa inhibition of IFNγ induction, NK-92 cells [34]: 23.5 nM
- IC50 (nM), IL-18BPa inhibition of IFNγ induction, NK-92 cells [35]: 3.23 nM
Substance: Fc-fused human IL-18 binding protein isoform a (IL-18BPa) (from UniProt O95998 31-194) (Fc fusion)

— patent US20240116997A1
